Molecular target: hClpX E285A (human) (UniProt O76031)

Q: With “hClpX E285A (from UniProt O76031 57-633) (enzyme)” as the substance, how does the stoichiometry N read?
A: The stoichiometry N was 6.

From paper PMC12852852
